{"source": "paper PMC4732737", "key": {"[1]": {"molecular_target": "AviB-tagged BG505 SOSIP.664 A316W trimer (HIV-1)", "assay": "BLI"}, "[2]": {"molecular_target": "AviB-tagged BG505 SOSIP.v4.2 trimer (HIV-1)", "assay": "BLI"}}}
{"substance": "soluble CD4 (domain or fragment)", "values": [{"measurement": "fold reduction of affinity against the wild-type trimer", "setting": "[1]", "result": 2.4, "unit": "fold"}, {"measurement": "fold reduction of affinity against the wild-type trimer", "setting": "[2]", "result": 2.4, "unit": "fold"}]}
